Laboratory results: paper PMC6778065, “BIN1 recovers tauopathy-induced long-term memory deficits in mice and interacts with Tau through Thr^348 phosphorylation” (Acta Neuropathologica, 2019)
Square brackets hold non-standard residues; d marks the D form. Ends that are not written are not given here. pT = C[C@@H](OP(=O)(O)O)[C@H](N)C(=O)O

T1: BIN1-SH3 domain (UniProt O00499 520-593)
T1 construct: SH3 domain of BIN1 (Amphiphysin 2); residue 559 lies in it (isoform 1 numbering); 15N-labelled for NMR; also called 15N-BIN1 SH3
T1 sequence (looked up): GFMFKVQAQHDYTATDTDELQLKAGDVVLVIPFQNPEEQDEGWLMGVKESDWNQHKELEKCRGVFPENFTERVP

B1: CLAP (334-355) peptide (peptide)
peptide: QLRKGPPVPPPPKHTPSKEVKQ
notes: residues 334-355 of the CLAP domain of BIN1 isoform 1 (neuronal isoform); unlabeled peptide, 4 mM stock solution
B2: human BIN1 (transgene, hTau;TgBIN1 mouse hippocampus) (natural protein, UniProt O00499 1-593, looked up)
chain: MAEMGSKGVTAGKIASNVQKKLTRAQEKVLQKLGKADETKDEQFEQCVQNFNKQLTEGTRLQKDLRTYLASVKAMHEASKKLNECLQEVYEPDWPGRDEANKIAENNDLLWMDYHQKLVDQALLTMDTYLGQFPDIKSRIAKRGRKLVDYDSARHHYESLQTAKKKDEAKIAKPVSLLEKAAPQWCQGKLQAHLVAQTNLLRNQAEEELIKAQKVFEEMNVDLQEELPSLWNSRVGFYVNTFQSIAGLEENFHKEMSKLNQNLNDVLVGLEKQHGSNTFTVKAQPSDNAPAKGNKSPSPPDGSPAATPEIRVNHEPEPAGGATPGATLPKSPSQLRKGPPVPPPPKHTPSKEVKQEQILSLFEDTFVPEISVTTPSQFEAPGPFSEQASLLDLDFDPLPPVTSPVKAPTPSGQSIPWDLWEPTESPAGSLPSGEPSAAEGTFAVSWPSQTAEPGPAQPAEASEVAGGTQPAAGAQEPGETAASEAASSSLPAVVVETFPATVNGTVEGGSGAGRLDLPPGFMFKVQAQHDYTATDTDELQLKAGDVVLVIPFQNPEEQDEGWLMGVKESDWNQHKELEKCRGVFPENFTERVP
notes: human BIN1 expressed under the control of its own promoter; endogenous mouse Bin1 is present in the same tissue; also called hBIN1; Amphiphysin 2; source: transgenic mouse (hTau;TgBIN1), hippocampus, fixed brain slices
B3: phospho-T348 CLAP (334-355) peptide (peptide)
peptide: QLRKGPPVPPPPKH[pT]PSKEVKQ
notes: residues 334-355 of the CLAP domain of BIN1 isoform 1 (neuronal isoform), phosphorylated on T348; unlabeled peptide, 4 mM stock solution; also called phospho-CLAP (334-355)

Tests used:
BIN1-SH3 domain = target: T1, BIN1-SH3 domain; assay: NMR titration; 100 µM 15N-labeled BIN1-SH3 domain titrated with aliquots of 4 mM unlabeled peptide; 1H-15N HSQC chemical shift changes fitted to the saturation equation; 20 °C, 50 mM sodium phosphate pH 7.3, 30 mM NaCl, 3 mM DTT, 10% D2O; conditions: both partners purified
[1] = target: T2, human Tau (MAPT transgene, hTau mouse hippocampus) (human, UniProt P10636-8 1-441); assay: proximity ligation; PLA in fixed hippocampal brain slices of 18-month-old control, hTau and hTau;TgBIN1 mice; primary antibodies BIN1-99D or α-tubulin DM1A (mouse) and Tau (rabbit); PLA spot density per tissue area; conditions: partners not purified
T2 construct: human Tau from the human MAPT transgene Tg(MAPT)8cPdav; source: transgenic mouse (hTau; hTau;TgBIN1; no endogenous murine Mapt), hippocampus, fixed brain slices
T2 sequence (P10636 other isoform, or with tags, fused parts or gaps): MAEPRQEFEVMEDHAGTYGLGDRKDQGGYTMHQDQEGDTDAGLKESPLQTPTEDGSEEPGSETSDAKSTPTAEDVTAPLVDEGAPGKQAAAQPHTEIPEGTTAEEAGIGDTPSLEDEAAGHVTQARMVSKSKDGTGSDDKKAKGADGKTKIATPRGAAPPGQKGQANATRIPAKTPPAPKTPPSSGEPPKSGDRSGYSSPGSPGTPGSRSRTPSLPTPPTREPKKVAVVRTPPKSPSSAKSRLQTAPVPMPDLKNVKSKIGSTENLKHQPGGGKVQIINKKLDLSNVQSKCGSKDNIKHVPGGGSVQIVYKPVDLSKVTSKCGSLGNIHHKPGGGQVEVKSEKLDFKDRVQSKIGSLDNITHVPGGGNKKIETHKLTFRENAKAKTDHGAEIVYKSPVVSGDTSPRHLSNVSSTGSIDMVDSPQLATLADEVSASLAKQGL

Binder	Kd (BIN1-SH3 domain) [µM]	fold PLA spot density against control mice [1] [fold]	fold PLA spot density against hTau mice [1] [fold]
B1	71 ± 13		
B2		6.2	2.7
B3	736 ± 70		
